Laboratory results from the supplement of paper PMC10065799, “High-throughput profiling of sequence recognition by tyrosine kinases and SH2 domains using bacterial peptide display” (eLife, 2023).

Experiments:
[1] = target: SHP2-C SH2; test: SH2 binding enrichment of the phosphorylated peptide, bacterial display (enrichment ratio); higher = better substrate or ligand; peptides without Tyr show the background
[2] = target: Grb2 SH2 (UniProt P62993); test: as above
[3] = target: c-Src SH2; test: as above
[4] = target: FGFR1 (UniProt P11362); test: phosphorylation enrichment, bacterial display (enrichment ratio); higher = better substrate or ligand; peptides without Tyr show the background
[5] = target: Fyn (UniProt P06241); test: as above
[6] = target: Hck (UniProt P08631); test: as above
[7] = test system: c-Abl (mouse); test: as above
[8] = target: EPHB2 (UniProt P29323); test: as above
EPHB2, sequence (P29323 whole entry, looked up): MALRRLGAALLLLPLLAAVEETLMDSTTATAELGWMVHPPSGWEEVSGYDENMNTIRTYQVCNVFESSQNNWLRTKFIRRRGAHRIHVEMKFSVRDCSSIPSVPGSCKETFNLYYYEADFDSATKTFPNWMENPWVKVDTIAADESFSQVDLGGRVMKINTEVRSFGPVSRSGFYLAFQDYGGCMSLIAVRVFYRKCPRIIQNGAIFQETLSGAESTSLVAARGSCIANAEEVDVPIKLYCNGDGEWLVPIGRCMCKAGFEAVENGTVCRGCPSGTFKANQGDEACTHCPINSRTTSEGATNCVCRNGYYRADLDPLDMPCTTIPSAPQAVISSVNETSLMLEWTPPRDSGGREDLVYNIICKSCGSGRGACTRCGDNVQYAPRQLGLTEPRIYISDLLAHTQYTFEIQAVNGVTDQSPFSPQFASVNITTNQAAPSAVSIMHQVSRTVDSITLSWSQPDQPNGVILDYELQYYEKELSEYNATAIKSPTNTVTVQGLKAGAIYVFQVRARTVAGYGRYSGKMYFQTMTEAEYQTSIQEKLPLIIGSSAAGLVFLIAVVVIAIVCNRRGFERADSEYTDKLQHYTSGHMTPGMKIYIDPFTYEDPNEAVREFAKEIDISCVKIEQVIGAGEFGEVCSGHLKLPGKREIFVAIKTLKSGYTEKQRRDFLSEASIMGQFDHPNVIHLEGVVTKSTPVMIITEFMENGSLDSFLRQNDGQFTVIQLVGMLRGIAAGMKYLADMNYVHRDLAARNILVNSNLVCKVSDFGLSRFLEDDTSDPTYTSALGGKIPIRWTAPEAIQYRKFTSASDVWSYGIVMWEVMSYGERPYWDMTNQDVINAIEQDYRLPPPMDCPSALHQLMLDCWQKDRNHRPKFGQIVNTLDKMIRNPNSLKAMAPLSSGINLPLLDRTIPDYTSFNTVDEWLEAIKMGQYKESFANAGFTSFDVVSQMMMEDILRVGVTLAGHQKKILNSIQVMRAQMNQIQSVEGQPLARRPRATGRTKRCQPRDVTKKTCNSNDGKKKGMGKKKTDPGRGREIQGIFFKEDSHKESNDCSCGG

[9] = test system: c-Src; test: as above
[10] = target: FGFR3 (UniProt P22607); test: as above
FGFR3, sequence (P22607 whole entry, looked up): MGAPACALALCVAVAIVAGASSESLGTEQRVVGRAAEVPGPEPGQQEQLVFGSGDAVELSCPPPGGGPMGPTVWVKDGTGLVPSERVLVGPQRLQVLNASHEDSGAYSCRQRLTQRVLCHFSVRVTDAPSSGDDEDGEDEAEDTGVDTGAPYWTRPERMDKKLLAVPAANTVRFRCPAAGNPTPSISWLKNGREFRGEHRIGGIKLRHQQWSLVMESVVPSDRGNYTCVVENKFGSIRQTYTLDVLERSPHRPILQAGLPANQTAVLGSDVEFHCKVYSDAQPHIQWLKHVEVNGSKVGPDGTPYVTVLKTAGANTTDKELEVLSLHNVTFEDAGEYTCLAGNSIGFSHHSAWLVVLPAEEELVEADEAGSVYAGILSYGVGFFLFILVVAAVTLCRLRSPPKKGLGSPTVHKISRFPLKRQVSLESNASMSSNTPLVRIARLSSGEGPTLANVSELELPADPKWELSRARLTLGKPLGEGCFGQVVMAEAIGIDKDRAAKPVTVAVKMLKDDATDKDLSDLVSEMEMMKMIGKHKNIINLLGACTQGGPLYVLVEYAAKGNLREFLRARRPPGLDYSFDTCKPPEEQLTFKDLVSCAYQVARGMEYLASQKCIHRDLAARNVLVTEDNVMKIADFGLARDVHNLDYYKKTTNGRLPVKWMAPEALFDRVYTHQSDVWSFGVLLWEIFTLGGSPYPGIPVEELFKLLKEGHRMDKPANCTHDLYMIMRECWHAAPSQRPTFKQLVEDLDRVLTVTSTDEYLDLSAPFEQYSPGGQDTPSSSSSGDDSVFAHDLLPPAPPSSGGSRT

[11] = target: Jak2 (UniProt O60674); test: as above
Jak2, sequence (O60674 whole entry, looked up): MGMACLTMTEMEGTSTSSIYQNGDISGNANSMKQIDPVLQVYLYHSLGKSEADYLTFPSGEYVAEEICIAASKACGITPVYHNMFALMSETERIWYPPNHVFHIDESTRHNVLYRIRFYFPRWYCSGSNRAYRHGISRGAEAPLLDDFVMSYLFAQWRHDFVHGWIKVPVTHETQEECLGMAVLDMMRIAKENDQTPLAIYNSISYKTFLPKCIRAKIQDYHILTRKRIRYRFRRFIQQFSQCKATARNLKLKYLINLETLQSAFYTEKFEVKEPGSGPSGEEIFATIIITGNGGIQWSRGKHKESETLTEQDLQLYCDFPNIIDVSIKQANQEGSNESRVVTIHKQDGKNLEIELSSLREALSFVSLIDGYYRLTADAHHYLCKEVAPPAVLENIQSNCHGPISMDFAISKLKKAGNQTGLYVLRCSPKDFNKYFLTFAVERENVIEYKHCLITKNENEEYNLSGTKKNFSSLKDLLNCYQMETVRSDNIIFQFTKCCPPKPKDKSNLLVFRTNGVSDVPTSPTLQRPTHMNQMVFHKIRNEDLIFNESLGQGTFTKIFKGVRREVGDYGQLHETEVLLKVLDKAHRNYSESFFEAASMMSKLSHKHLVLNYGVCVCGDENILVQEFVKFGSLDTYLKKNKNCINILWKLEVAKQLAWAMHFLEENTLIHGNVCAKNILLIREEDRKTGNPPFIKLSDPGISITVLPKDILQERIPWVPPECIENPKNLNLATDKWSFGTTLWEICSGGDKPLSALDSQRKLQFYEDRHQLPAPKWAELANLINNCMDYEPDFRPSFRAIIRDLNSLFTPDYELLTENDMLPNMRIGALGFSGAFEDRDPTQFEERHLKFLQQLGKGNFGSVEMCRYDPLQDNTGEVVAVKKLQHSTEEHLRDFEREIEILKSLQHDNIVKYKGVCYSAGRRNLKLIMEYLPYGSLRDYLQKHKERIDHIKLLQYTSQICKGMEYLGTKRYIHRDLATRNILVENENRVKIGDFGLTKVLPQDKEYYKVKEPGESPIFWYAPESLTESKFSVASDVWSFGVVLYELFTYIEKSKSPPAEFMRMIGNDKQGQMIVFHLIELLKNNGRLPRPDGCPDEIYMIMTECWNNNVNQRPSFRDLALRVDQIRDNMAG

[12] = target: MERTK (UniProt Q12866); test: as above
[13] = test system: AncSZ; test: as above
[14] = test system: Fer (mouse); test: as above
[15] = target: EPHB1 (UniProt P54762); test: as above
EPHB1, sequence (P54762 whole entry, looked up): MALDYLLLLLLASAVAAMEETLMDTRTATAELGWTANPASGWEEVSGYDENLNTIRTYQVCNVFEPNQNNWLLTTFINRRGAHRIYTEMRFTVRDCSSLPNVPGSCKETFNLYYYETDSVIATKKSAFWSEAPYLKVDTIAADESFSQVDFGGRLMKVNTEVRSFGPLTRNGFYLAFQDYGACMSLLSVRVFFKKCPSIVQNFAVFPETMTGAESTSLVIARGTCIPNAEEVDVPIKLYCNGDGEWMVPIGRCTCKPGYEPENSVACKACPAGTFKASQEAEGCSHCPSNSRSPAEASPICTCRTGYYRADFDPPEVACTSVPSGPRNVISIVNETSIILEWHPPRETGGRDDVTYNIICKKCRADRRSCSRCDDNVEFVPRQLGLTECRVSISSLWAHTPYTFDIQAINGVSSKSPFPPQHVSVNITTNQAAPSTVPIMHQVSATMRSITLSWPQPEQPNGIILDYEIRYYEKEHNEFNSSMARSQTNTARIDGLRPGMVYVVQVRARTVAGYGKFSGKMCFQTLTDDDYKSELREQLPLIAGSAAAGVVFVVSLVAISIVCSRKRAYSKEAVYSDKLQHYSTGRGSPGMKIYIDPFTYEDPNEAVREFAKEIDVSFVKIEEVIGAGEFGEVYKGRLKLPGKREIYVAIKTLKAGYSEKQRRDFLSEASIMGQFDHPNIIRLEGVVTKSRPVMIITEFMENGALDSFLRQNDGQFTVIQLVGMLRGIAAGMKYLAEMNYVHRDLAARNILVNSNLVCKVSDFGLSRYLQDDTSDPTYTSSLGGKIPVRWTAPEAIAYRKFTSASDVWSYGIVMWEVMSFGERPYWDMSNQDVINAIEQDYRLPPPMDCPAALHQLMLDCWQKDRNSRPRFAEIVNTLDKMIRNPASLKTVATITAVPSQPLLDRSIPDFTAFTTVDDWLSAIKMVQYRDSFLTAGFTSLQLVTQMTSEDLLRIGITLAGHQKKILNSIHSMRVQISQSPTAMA

[16] = target: Fes (UniProt P07332); test: as above
Fes, sequence (P07332 whole entry, looked up, the tested form may be a part): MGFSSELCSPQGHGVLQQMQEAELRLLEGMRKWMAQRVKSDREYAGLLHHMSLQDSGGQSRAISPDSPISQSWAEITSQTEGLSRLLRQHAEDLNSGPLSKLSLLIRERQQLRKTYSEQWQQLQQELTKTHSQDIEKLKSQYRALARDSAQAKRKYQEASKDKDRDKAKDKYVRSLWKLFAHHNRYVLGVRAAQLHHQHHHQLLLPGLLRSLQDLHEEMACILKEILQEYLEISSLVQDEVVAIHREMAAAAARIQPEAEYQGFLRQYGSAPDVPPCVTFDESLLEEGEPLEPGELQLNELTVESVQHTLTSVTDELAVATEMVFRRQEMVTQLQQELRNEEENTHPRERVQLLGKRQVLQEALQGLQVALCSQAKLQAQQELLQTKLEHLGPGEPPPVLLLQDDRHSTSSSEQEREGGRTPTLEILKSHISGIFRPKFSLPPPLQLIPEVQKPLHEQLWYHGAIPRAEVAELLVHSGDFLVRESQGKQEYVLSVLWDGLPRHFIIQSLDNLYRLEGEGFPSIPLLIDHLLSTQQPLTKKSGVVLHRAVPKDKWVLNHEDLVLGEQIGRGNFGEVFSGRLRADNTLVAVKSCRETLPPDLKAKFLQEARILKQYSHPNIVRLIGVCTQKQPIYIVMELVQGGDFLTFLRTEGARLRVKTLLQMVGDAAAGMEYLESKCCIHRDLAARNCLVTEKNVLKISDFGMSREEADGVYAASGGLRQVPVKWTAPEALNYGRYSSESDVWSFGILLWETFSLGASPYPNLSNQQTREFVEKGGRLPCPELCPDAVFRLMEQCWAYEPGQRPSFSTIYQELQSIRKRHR
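For SH2 binding enrichment of the phosphorylated peptide, bacterial display in this document: peptide library displayed on the E. coli surface as eCPX fusions, selected cells deep-sequenced, score is each peptide's frequency after selection divided by its frequency in the input.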
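For phosphorylation enrichment, bacterial display in this document: 11-residue human phosphosite peptides and single-mutation variants displayed on the E. coli surface, counted by deep sequencing, each peptide's frequency after selection divided by its frequency in the unselected input library; frequency after pTyr selection over input frequency; kinase dosed for 20-30% of maximal phosphorylation in three min.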

Grb2 SH2, sequence (P62993 whole entry, looked up): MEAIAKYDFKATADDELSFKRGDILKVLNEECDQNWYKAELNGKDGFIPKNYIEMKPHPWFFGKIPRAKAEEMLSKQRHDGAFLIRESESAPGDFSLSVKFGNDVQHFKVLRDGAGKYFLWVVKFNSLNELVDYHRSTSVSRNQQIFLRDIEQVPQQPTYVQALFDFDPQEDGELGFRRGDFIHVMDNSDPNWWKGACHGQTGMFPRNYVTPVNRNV

| Sequence | SH2 binding enrichment [1] | SH2 binding enrichment [2] | SH2 binding enrichment [3] | phosphorylation enrichment [4] | phosphorylation enrichment [5] | phosphorylation enrichment [6] | phosphorylation enrichment [7] | phosphorylation enrichment [8] | phosphorylation enrichment [9] | phosphorylation enrichment [10] | phosphorylation enrichment [11] | phosphorylation enrichment [12] | phosphorylation enrichment [13] | phosphorylation enrichment [14] | phosphorylation enrichment [15] | phosphorylation enrichment [16] |
| --- | --- | --- | --- | --- | --- | --- | --- | --- | --- | --- | --- | --- | --- | --- | --- | --- |
| EHTTLYSNNST [KANSL1_Y223] | 0.863 | 0.846 | 0.651 | 0.356 | 0.423 | 0.568 | 0.487 | 0.53 | 0.455 | 0.431 | 0.575 | 0.386 | 0.632 | 0.602 | 0.387 | 0.65 |
| EAIMTYVSSFF [ACTN4_Y260_K255E_YF] | 0.642 | 0.659 | 0.493 | 0.501 | 0.778 | 0.643 | 0.842 | 0.726 | 0.975 | 0.675 | 0.9 | 0.422 | 1.02 | 0.468 | 0.621 | 1.04 |
| CSPLLYKVIMS [OR8D4_Y132_R133K] | 0.635 | 0.882 | 0.488 | 0.518 | 0.507 | 0.566 | 0.955 | 0.648 | 0.445 | 0.819 | 0.989 | 0.6 | 1.06 | 0.611 | 0.693 | 1.21 |
| GFPVHYTDMSN [DNMT3B_Y815_V818M] | 6.03 | 0.787 | 3.25 | 0.546 | 0.536 | 0.417 | 0.568 | 0.439 | 0.416 | 0.501 | 0.667 | 0.545 | 0.947 | 0.419 | 0.388 | 0.699 |
| RPPFTYATLIR [FOXP3_Y342] | 6.22 | 1.37 | 1.25 | 0.913 | 2.14 | 2.58 | 0.686 | 0.737 | 3.29 | 0.813 | 1.29 | 1.01 | 1.14 | 0.55 | 1.64 | 1.01 |
| GVTLLCYGRYN [ADGRD1_Y85_Y85C] | 0.806 | 0.753 | 0.486 | 0.435 | 0.708 | 0.508 | 0.975 | 0.682 | 0.97 | 0.908 | 1.23 | 0.397 | 1.31 | 0.563 | 0.707 | 1.55 |
| RAFRRYLLKQK [SCN2A_Y1919_YF] | 0.44 | 0.829 | 0.454 | 0.617 | 0.696 | 0.63 | 0.531 | 0.61 | 0.671 | 0.865 | 0.712 | 0.971 | 0.708 | 0.675 | 0.535 | 0.703 |
| QMVGMYAFSFM [AVPR2_Y124_S126F_YF] | 0.817 | 0.654 | 0.353 | 0.846 | 1.16 | 1.06 | 0.912 | 3.08 | 1.28 | 1.63 | 1.15 | 5.8 | 1.5 | 3.54 | 1.95 | 1.65 |
| RLRKFHLGKFL [KLB_Y906_Y906H_YF] | 0.406 | 0.229 | 0.303 | 0.417 | 0.574 | 0.63 | 0.948 | 1.16 | 0.792 | 0.651 | 0.698 | 0.969 | 1.06 | 0.415 | 1.17 | 1.13 |
| PEIIAYQPFGK [PRKCG_Y529_YF] | 1.11 | 1.06 | 0.664 | 0.777 | 0.688 | 0.798 | 0.672 | 0.645 | 1.07 | 0.796 | 0.976 | 0.653 | 1.03 | 0.672 | 0.635 | 1.1 |
| SAEKAYHEQFS [TUBA1A_Y282_L286F] | 0.565 | 0.983 | 0.512 | 0.557 | 0.519 | 0.458 | 0.454 | 0.393 | 0.441 | 0.459 | 0.663 | 0.424 | 0.664 | 0.394 | 0.401 | 0.701 |
| PVFQVYPLLNC [GATA1_Y78] | 0.783 | 0.742 | 0.49 | 1.27 | 0.652 | 0.654 | 1.13 | 0.64 | 0.697 | 1.43 | 1.72 | 0.927 | 1.7 | 0.758 | 0.775 | 1.87 |
| IRRWVYPLTPE [EIF2B5_Y319] | 0.716 | 0.811 | 0.517 | 0.451 | 0.514 | 0.481 | 0.464 | 0.522 | 0.437 | 0.613 | 0.732 | 0.476 | 0.934 | 0.559 | 0.406 | 0.943 |
| TQPSPYAVFLF [RPGRIP1_Y823_R827L_YF] | 0.82 | 0.91 | 0.494 | 1.28 | 6.88 | 3.69 | 15.1 | 1.28 | 5.76 | 0.942 | 0.926 | 7.59 | 0.826 | 7.3 | 2.12 | 0.915 |
| EFNINYNNEPP [THG1L_Y228_L232P] | 0.528 | 0.742 | 0.453 | 0.681 | 0.626 | 0.583 | 0.852 | 0.566 | 0.529 | 0.742 | 0.989 | 0.46 | 1.23 | 0.6 | 0.642 | 1.3 |
| RASGIYFVPKG [APBB1IP_Y340_YF] | 1.11 | 1.12 | 0.935 | 1.71 | 6.15 | 8.1 | 34.3 | 2.37 | 4.75 | 1.71 | 2.91 | 13.8 | 1.17 | 0.731 | 5.1 | 1.2 |
